We go through one molecule from PMC5847613 (Scientific Reports, 2018).

Common to all, as to conditions: both partners purified
Assay [1] has as its target T1, recombinant HA of pH1N1 A/California/04/2009 (Influenza A virus A/California/04/2009 …, UniProt C3W5S1, strain).
T1 construct: source: bought: Protein Sciences Corp., Meriden, CT
The experiment in a line: SPR. In general terms: Surface plasmon resonance follows binding to a sensor surface in real time, without labels.

Assay [2] has as its target recombinant HA of A/South Carolina/01/1918 H1N1 (Influenza A virus A/South …, UniProt Q9WFX3, strain). The assay is described as follows: mPLEX-Flu multiplex fluorescent-bead assay (Luminex).
The target in assay [3] is recombinant HA of A/USSR/1977 H1N1 (Influenza A virus A/USSR/90/1977 …, UniProt P03453, strain). Described as above.
The target in assay [4] is recombinant influenza A H1 HA (A/Brisbane/59/07) (Influenza A virus A/Brisbane/59/2007 …, UniProt D5F1Q8, strain). The assay is described as follows: ELISA. Background: In an ELISA, binding on a coated surface is turned into a signal by an enzyme label.
Assay [5] concerns the target recombinant influenza B HA (B/Brisbane/60/08) (Influenza B virus B/Brisbane/60/2008, UniProt C0LT35, strain). The assay is described as follows: ELISA.

Usually Kd stands for the concentration at which binding is half-saturated.

B1: KPF1 human monoclonal antibody (antibody, V domains shown)
VH: EVQLLESGGGLVQPGGSLRISCAASGSTFGDFAMSWVRQSPGRGLEWVSVTSAGGDRTYYADSVKGRFTISRDNSKNTLYLQMNSLRGEDTAMYYCARLDSSGFHYGRPGRNWGQGTLVTVSS
VL: DIQMTHSPPSLSASVGDRITITCQASQDISYYLIWYQQKPGKAPKPLIYDASNLEAGVPSRFSASGSGTDFTLTISSLQPEDLATYYCQQYKSLPYTFGQGTKLEIK
notes: also called KPF1 hmAb; hmAb KPF1
In the case of B1, the Kd in assay [1] was found to be 0.178 nM. Further, the binding result in assay [2] is given as “binds”; in assay [3], “no binding (tested: 1 μg/ml)”; in assay [4], “binds”; in assay [5], “no binding”.
